B1: TPR 5TU (parent)
chain: GGAUCUUCUCGAUCUAACAAAAAAGACAAAUCUGCCACAAAGCUUGAGAGCAUCUUCGGAUGCAGAGGCGGCAGCCUUCGGUGGCGCGAUAGCGCCAACGUUCUCAACUAUGACACGCAAAACGCGUGCUCCGUUGAAUGGAGUUUAUCAUG

Fewer inactive variants are shown than the library holds.

In the series the parent is B1. Briefly: polymerase ribozyme fitness, log enrichment relative to wild type (log ratio); higher = more active; in vitro selection for triplet polymerase activity. The gist of the method: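 Each subunit of a heterodimeric triplet polymerase ribozyme was mutagenized into a library by PCR, transcribed, and subjected to one round of in vitro selection, run in triplicate. Libraries were annealed with a biotinylated primer, the partner subunit and triplets, incubated frozen at −7 °C, and extended constructs were gel-excised, captured on streptavidin beads and recovered by RT-PCR. Input and output libraries were sequenced on Illumina, keeping genotypes with ≥10 input reads and ≥1 read per output. Fitness is log base 2 of genotype enrichment divided by wild-type enrichment, from inverse-variance-weighted replicate averages.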
With A23G A29U U61G C99U, the “polymerase ribozyme fitness (log ratio)” value is at most -4.2. Regarding A12U C38G G50A A66C, the “polymerase ribozyme fitness (log ratio)” value is at most -4.2.

As for C69A C87A A106C G140A, the “polymerase ribozyme fitness (log ratio)” value is at most -4.2. As for A97U C116U, the “polymerase ribozyme fitness (log ratio)” value is -0.695. For C36U C95G C108A, the “polymerase ribozyme fitness (log ratio)” value was -3.89.

Take C38U A107C: the “polymerase ribozyme fitness (log ratio)” value was -3.45. Then G50A C57A A66C G81U G86C A97C, with at most -4.2; and A52G C57A G83U A91G C95A, with -4.15. Consider C5U C85U, for which the “polymerase ribozyme fitness (log ratio)” value is -0.24.

For the variant A60G G80C G140A G141U, the “polymerase ribozyme fitness (log ratio)” value is at most -4.2.

Turning to C57A G86U C123U C125U, the “polymerase ribozyme fitness (log ratio)” value is -0.745. In the case of C72U C95U C96U U146A, the “polymerase ribozyme fitness (log ratio)” value is -2.06. Regarding C14G C36U G92C, the “polymerase ribozyme fitness (log ratio)” value is at most -4.2.

As for C27A G88A C96A A97G G128U U135G U145A, the “polymerase ribozyme fitness (log ratio)” value was at most -4.2. Then C14A A17G G74U C85U C99G U101A U148A, with at most -4.2; and A21C A24G C38U G83A C99U, with at most -4.2. In the case of A19U C85A, the “polymerase ribozyme fitness (log ratio)” value is -1.33. As for A26C C27G C51G G83C A89C A138G A142U, the figure is at most -4.2; as for G70C G126U G152A, -3.99. On to C99U A150C, for which the “polymerase ribozyme fitness (log ratio)” value is at most -4.2. Turning to A47C A49C U144G, the “polymerase ribozyme fitness (log ratio)” value is -4. With C10U C32G U145C, the “polymerase ribozyme fitness (log ratio)” value was -4.16. For the variant G34A C36A A137G, the “polymerase ribozyme fitness (log ratio)” value was at most -4.2. On to G84U U127A U134G, for which the “polymerase ribozyme fitness (log ratio)” value is at most -4.2. Regarding G67C G68A C85U C99A A115U, the “polymerase ribozyme fitness (log ratio)” value was at most -4.2. C75G G84A: the “polymerase ribozyme fitness (log ratio)” value is -3.93. Take G86U U101C C118U: the “polymerase ribozyme fitness (log ratio)” value is -1.56.

Turning to G46U U56A, the “polymerase ribozyme fitness (log ratio)” value was -0.107. For the variant U53A G68U C76G U130A C132U G136A A142U, the “polymerase ribozyme fitness (log ratio)” value is at most -4.2. On to A37U C75A C85U G112C G124C C132G A142G U145A, for which the “polymerase ribozyme fitness (log ratio)” value was at most -4.2. Turning to U53A U56A, the “polymerase ribozyme fitness (log ratio)” value was -2.45.

Take A28U G42C U44C C75G C96A A115G: the “polymerase ribozyme fitness (log ratio)” value was at most -4.2.

Consider A12C A64G C85A G100C, for which the “polymerase ribozyme fitness (log ratio)” value was at most -4.2.

For the variant A40U A47C A89U U134G, the “polymerase ribozyme fitness (log ratio)” value is -2.3. Consider A30U C35U G68U A120U, for which the “polymerase ribozyme fitness (log ratio)” value is at most -4.2. C18G A37C C96G A106G: the “polymerase ribozyme fitness (log ratio)” value is -1.07. As for C27U C95U, the “polymerase ribozyme fitness (log ratio)” value is -2.39. On to U31A A73U C95G, for which the “polymerase ribozyme fitness (log ratio)” value was -3.66. Turning to G25U G46C G50A G62A C96U, the “polymerase ribozyme fitness (log ratio)” value is at most -4.2.

As to A39G A41G A49G G83C U145A, the “polymerase ribozyme fitness (log ratio)” value is -3.94. As to C125U A147U, the “polymerase ribozyme fitness (log ratio)” value is -1.83. As to C35A U90A U111C A137C, the “polymerase ribozyme fitness (log ratio)” value is at most -4.2. Consider C27U U139A, for which the “polymerase ribozyme fitness (log ratio)” value was at most -4.2. Then C18U A40C A52G G86U U90C U135G, with at most -4.2; and A30G C38U A73U U78G C87G C105G, with at most -4.2.

With G84A G133C G141C, the “polymerase ribozyme fitness (log ratio)” value is -2.83.

A21C A40C G48A C85A G94C: the “polymerase ribozyme fitness (log ratio)” value was -2.1. As for A16U G50A A60C G83C G141C, the figure is at most -4.2. As for C38U G81A C99G A120U G124C, the “polymerase ribozyme fitness (log ratio)” value was -3.02.

Consider C57U C75U A107U U127C A150G, for which the “polymerase ribozyme fitness (log ratio)” value is at most -4.2.

A39U A52U C76G G83A: the “polymerase ribozyme fitness (log ratio)” value was at most -4.2.

Consider A73C A107G, for which the “polymerase ribozyme fitness (log ratio)” value is at most -4.2. For U135G U144G, the “polymerase ribozyme fitness (log ratio)” value was -2.41.

Regarding G83U G94U C116A C132G G140U, the “polymerase ribozyme fitness (log ratio)” value was -3.11. Then A16U A52G A64U U77A C87A G143C, with at most -4.2.

Turning to A3U U53A U82C C87G C96U C125G, the “polymerase ribozyme fitness (log ratio)” value was at most -4.2. Turning to A26C A47C A52C G58C G71A G100C C116A, the “polymerase ribozyme fitness (log ratio)” value was at most -4.2. C18U C51U C96A G126C C132U: the “polymerase ribozyme fitness (log ratio)” value is -2.04. Turning to A26U C43A A49G G58C C93U G112A, the “polymerase ribozyme fitness (log ratio)” value is at most -4.2. As for A16C C57U A60G G86U C125U U134G, the figure is -4.12; as for A3U A17G A49C C93A U104A A119C C132U G141C U145G, at most -4.2; as for A3G C14G U61G G71A G86C A91C C105G C114G G143A U145A, at most -4.2. Turning to C57A, the “polymerase ribozyme fitness (log ratio)” value is -0.00233. On to G84C G92C A106U C149U, for which the “polymerase ribozyme fitness (log ratio)” value is at most -4.2. Consider A20U G62U G86A A107U G140A, for which the “polymerase ribozyme fitness (log ratio)” value was at most -4.2. G84U G100A A106U A137C: the “polymerase ribozyme fitness (log ratio)” value is at most -4.2. As for A28U G48A G74C C96U C131A, the “polymerase ribozyme fitness (log ratio)” value is at most -4.2.

For the variant C32G A37G C38U U56A A119C, the “polymerase ribozyme fitness (log ratio)” value was at most -4.2.

On to C95U A107G, for which the “polymerase ribozyme fitness (log ratio)” value is -4.16. For the variant A20U A40U U56A C96A G141C, the “polymerase ribozyme fitness (log ratio)” value was -2.73. As for A52G U53A C57A A73U C87G C93A C132U A150C, the figure is at most -4.2. Regarding A91G U104G A115C, the “polymerase ribozyme fitness (log ratio)” value is -4.06.

Regarding G83C U148G G152A, the “polymerase ribozyme fitness (log ratio)” value is -3.67.

Turning to G84U C93G, the “polymerase ribozyme fitness (log ratio)” value is at most -4.2. Turning to U6A A24U G81U C85G G140U, the “polymerase ribozyme fitness (log ratio)” value was at most -4.2.

For the variant A12G C51G A52C C63G, the “polymerase ribozyme fitness (log ratio)” value is at most -4.2. Consider A30C C85U, for which the “polymerase ribozyme fitness (log ratio)” value is -4.09. As for A12U G94A, the “polymerase ribozyme fitness (log ratio)” value is -1.47.

Take C14G U127G: the “polymerase ribozyme fitness (log ratio)” value is -4.18. As for U45C C93A, the “polymerase ribozyme fitness (log ratio)” value was -3.52. With G42A C79G U144C, the “polymerase ribozyme fitness (log ratio)” value is at most -4.2. For C32A U33G A66G G83A U102G C118G G124C G141C G143U, the “polymerase ribozyme fitness (log ratio)” value is at most -4.2. On to U45A G133A U134C, for which the “polymerase ribozyme fitness (log ratio)” value is at most -4.2.

For the origin of these results see the RNAGym collection of RNA variant scans (doi:10.1073/pnas.2313332121).
